Assay results as given in patent publication US20160251421A1 (AstraZeneca / MedImmune, published 2016).

T1: biotinylated recombinant human Angiopoietin-2 (R&D Systems, Inc. Cat. No. BT623) (human, UniProt O15123 19-496, limits assumed, biotinylated (sites not given))
T1 construct: Bought reagent; also called Ang-2; Ang2
T1 sequence (looked up): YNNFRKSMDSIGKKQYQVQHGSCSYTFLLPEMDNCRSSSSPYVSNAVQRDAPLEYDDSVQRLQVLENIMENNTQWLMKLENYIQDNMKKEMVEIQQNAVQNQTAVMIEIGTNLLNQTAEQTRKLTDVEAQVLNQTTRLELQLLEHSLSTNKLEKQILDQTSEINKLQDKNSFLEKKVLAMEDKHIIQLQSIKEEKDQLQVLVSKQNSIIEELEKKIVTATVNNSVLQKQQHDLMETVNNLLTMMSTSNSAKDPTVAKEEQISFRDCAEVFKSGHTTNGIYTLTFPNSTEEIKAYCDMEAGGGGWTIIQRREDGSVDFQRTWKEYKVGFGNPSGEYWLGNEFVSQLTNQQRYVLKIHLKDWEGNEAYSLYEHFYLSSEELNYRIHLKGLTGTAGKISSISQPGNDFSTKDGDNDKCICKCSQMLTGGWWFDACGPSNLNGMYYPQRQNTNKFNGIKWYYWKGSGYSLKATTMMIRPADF


Molecular target: T1, biotinylated recombinant human …
Assay: competitive binding ELISA: biotinylated Angiopoietin-2 on plate-coated Tie-2/Fc, purified mAb

Binder	Efficacy (ratio of bound Angiopoietin-2 with mAb (30 µg/ml) versus without mAb) [ratio]
anti-Ang-2 monoclonal antibody 3.3.2 (antibody, V domains shown, Fully human IgG kappa from XenoMouse hybridoma (strains XMG2 and XMG4); IgG purified from hybridoma supernatant; also called mAb 3.3.2) VH: EVQLVESGGGLVQPGGSLRLSCAVSGFTFSSYWMSWVRQAPGKGLEWVANIKQDGSEKYYVDSVKGRFTISRDNAKNSLYLQMNSLRAEDTAVYYCARDQGIAVAGPFDYWGQGTLVTVSS VL: EIVMTQSPATLSVSPGERATLSCRASQTVSSDLAWYQQKPGQAPRLLIYGASIRATGIPARFSGSGSGTEFTLTISSLQSEDFAVYSCQQYYNWWTFGQGTKVEIKR	0.388
anti-Ang-2 monoclonal antibody 5.28.1 (antibody, V domains shown, Fully human IgG kappa from XenoMouse hybridoma (strains XMG2 and XMG4); IgG purified from hybridoma supernatant; also called mAb 5.28.1) VH: EVQLVESGGIVVQPGGSLRLSCAASGFTFDDYTMHWVRQTPGKGLEWVSLISWDGGSTYYADSVKGRFTISRDNSKNSLYLQMNSLRTEDTALYYCAKDIDIAVAGTGFDHWGQGTLVTVSS VL: EIVMTQSPATLSVSPGERATLSCRASQSVTSNLAWYQQKPGQAPRLLIYGALIRATGIPARFSGSGSGTEFTLTISSLQSEDFAVYYCQQYNNWPFTFGPGTKVDIKR	0.389
anti-Ang-2 monoclonal antibody 3.31.2 (antibody, V domains shown, Fully human IgG kappa from XenoMouse hybridoma (strains XMG2 and XMG4); IgG purified from hybridoma supernatant; also called mAb 3.31.2) VH: EVQLVESGGGLVQPGGSLRLSCAASGFTFSSYWMSWVRQAPGKGLEWVANIKQDGSDKYYVDSVKGRFTISRDNAKNSLYLRMNSLRAEDTAVFYCARDMGSGWFDYWGQGTLVTVSS VL: EVVMTQSPATLSVSPGERATLSCRASQSVGSNLAWYQQKPGQAPRLLIYGASTRATGIPARFSGSGSGTEFTLTISSLQSEDFAVYCCQQYNHWWTFGQGTKVEIKR	0.375
anti-Ang-2 monoclonal antibody 5.86.1 (antibody, V domains shown, Fully human IgG kappa from XenoMouse hybridoma (strains XMG2 and XMG4); IgG purified from hybridoma supernatant; also called mAb 5.86.1) VH: QVQLVQSGAEVKKPGASVKVSCKASGYTFTGYHMYWVRQAPGQGLEWLGWINPNSGGTNYAQKFQGRVTMTRDTSISTAYMELSRLRSDDTAVYYCVRDQGIAAAGPFDYWCQGTLVTVSS VL: DIRMTQSPSSLSASVGDRVTITCRASQRISTYLNWYQQKPGKAPKFLIYAASSLQSGVPSRFSGSGSGTDFTLTISSLQPEDFATYYCQQSYTTPFTFGPGTKVDIKR	0.384

Second part, the binder after the results:

Efficacy (ratio of bound Angiopoietin-2 with mAb (30 µg/ml) versus without mAb) [ratio]	Binder
0.403	anti-Ang-2 monoclonal antibody 5.88.3 (antibody, V domains shown, Fully human IgG kappa from XenoMouse hybridoma (strains XMG2 and XMG4); IgG purified from hybridoma supernatant; also called mAb 5.88.3) VH: EVQMVESGGGLVQPGGSLRLSCAASGFTLRSYWMSWVRQAPGKGLEWVANIKEDGSEKYHVDSVKGRFTISRDNAENSLFLQMSSLRAEDTAVYYCARDMEASAGLFDYWGQGTLVTVSS VL: EIVMTQSPATLSVSPGERAILSCRASQSISSNLAWYQQKPGQAPRLLIYGASTRATGIPARFSGSGSGTEFTLTISSLQSEDFAVYYCQQYNYWWTFGQGTKVEIKR
0.232	anti-Ang-2 monoclonal antibody 5.103.1 (antibody, V domains shown, Fully human IgG kappa from XenoMouse hybridoma (strains XMG2 and XMG4); IgG purified from hybridoma supernatant; also called mAb 5.103.1) VH: QVQLVQSGAEVKKPGASVKVSCKASGYTFTGYYLYWVPQAPGQGLEWMGWISPNSGGTNYAQKFQGRVTMTRDTSISTAYMELSRLRSDDTAVYYCARDQVIAVAGPFDYWAQGTLVTVSS VL: not shown
0.364	anti-Ang-2 monoclonal antibody 5.101.1 (antibody, V domains shown, Fully human IgG kappa from XenoMouse hybridoma (strains XMG2 and XMG4); IgG purified from hybridoma supernatant; also called mAb 5.101.1) VH: not shown VL: EIVMTQSPATLSVSPGERATLSCRASQSLISNLAWYQQKPGQAPRLLIFGASTRATGIPARFSGSGSGTEFTLTISSLQSEDFAVYYCHQYNNWWTFGQGTKVEIKR
0.395	anti-Angiopoietin-2 monoclonal antibody 3.19.3 (antibody, V domains shown, Fully human IgG kappa from XenoMouse hybridoma (strains XMG2 and XMG4); IgG purified from hybridoma supernatant) VH: QVQLVESGGGVVQPGRSLRLSCAASGFTFTNYGMHWGRQAPGKGLEWVAVISHDGNNKYYVDSVKGRFTISRDNSKNTLYLQMNSLRAEDTAVYYCAREGIDFWSGLNWFDPWGQGTLVTVSS VL: EIVLTQSPGTLSLSPGERATLSCRASQSITGSYLAWYQQKPGQAPRLLICGASSWATGIPDRFSGSGSGTDFTLTISRLEPEDFAVYYCQQYSSSPITFGQGTRLEIKR
